# In patent US20260115256A1 (HANGZHOU SCIWIND BIOSCIENCES, published 2026):
# *1 amine or outer side, *2 acyl side, *3 side chain or, on linkers, in order; H or OH if unused. Bridges are numbered along the chain shown (N, C = ends). Primed or numbered codes have the meaning given here. Where no end group is shown, it is not given here. Side-chain parts run from the residue outwards. [ ]: non-standard residue; d: D form. The star is where a group is joined. C20 diacid = O=C(O)CCCCCCCCCCCCCCCCCCC(=O)*; C18 diacid = O=C(O)CCCCCCCCCCCCCCCCC(=O)*; γGlu = O=C(O)[C@H](CCC(=O)[*:2])N[*:1]; Hyp = O=C(O)[C@@H]1C[C@@H](O)CN1; hArg = N=C(N)NCCCC[C@H](N)C(=O)O; αMeP = C[C@@]1(C(=O)O)CCCN1; Orn = NCCC[C@H](N)C(=O)O; Aze = O=C(O)[C@@H]1CCN1; Dab = NCC[C@H](N)C(=O)O; Pip′ = not defined here; Dap = NC[C@H](N)C(=O)O; AEEA = NCCOCCOCC(=O)O
# T1: human amylin receptor (AMY3) on CHO-K1/Ga15/AMY3 cells (human, UniProt P30988 25-474; O60896 24-148)
# T1 sequence (looked up) 1: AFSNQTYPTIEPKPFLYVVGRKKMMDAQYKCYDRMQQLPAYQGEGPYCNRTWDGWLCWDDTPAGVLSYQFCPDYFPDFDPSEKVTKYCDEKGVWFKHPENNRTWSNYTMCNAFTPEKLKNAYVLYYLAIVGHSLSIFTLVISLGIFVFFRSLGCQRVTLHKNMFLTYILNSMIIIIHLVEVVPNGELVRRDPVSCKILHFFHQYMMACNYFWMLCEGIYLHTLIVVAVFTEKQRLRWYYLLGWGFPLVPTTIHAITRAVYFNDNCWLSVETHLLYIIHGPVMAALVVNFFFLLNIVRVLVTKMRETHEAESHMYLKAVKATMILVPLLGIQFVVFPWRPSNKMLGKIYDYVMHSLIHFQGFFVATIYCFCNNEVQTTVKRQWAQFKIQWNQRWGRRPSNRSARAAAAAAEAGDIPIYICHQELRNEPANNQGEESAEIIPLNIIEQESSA
# T1 sequence (looked up) 2: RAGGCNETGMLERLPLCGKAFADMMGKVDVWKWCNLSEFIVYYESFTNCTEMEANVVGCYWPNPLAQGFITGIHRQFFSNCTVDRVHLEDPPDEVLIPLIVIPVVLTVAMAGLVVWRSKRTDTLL
# B1: PD068 (peptide)
# peptide: K([γGlu-C20 diacid])CNTATCATQRLADFLRHSSNNFGPILPPTNVGSNT[Hyp]-NH2
# modifications: disulfide 2-7 (inferred)
# B2: PD061 (peptide)
# peptide: RCNTATCATQRLAEFLRHSSNNLK([γGlu-C20 diacid])PILPPTNVGSNT[3‑Am‑Pro]-NH2
# modifications: disulfide 2-7 (inferred)
# B3: PD079 (peptide)
# peptide: DCNTATCATQRLADFLRHSSNNLK([γGlu-C20 diacid])PILPPTNVGSNT[Hyp]-NH2
# modifications: disulfide 2-7 (inferred)
# B4: PD066 (peptide)
# peptide: K([γGlu-C20 diacid])CNTATCATQRLAEFLRHSSNNFGPILPPTNVGSNTP-NH2
# modifications: ends and bridges not checked
# B5: PD003 (peptide)
# peptide: RCNTATCATQRLAEFLRHSSNNK([AEEA-AEEA-γGlu-C20 diacid])GPILPPTNVGSNTP-NH2
# modifications: disulfide 2-7 (inferred)
# B6: PD062 (peptide)
# peptide: RCNTATCATQRLADFLRHSSNNLK([γGlu-C20 diacid])PILPPTNVGSNT[3‑Am‑Pro]-NH2
# modifications: disulfide 2-7 (inferred)
# B7: PD072 (peptide)
# peptide: K([γGlu-C20 diacid])CNTATCATQRLADFLRHSSNNLKPILPPTNVGSNT[Hyp]-NH2
# modifications: disulfide 2-7 (inferred)
# B8: PD006 (peptide)
# peptide: RCNTATCATQRLAEFLRHSSK([γGlu-C20 diacid])NLGPILPPTNVGSNTP-NH2
# modifications: disulfide 2-7 (inferred)
# B9: PD086 (peptide)
# peptide: RCNTATCATQRLADFLRHSSNK([γGlu-C20 diacid])LGPILPPTNVGSNT[Hyp]-NH2
# modifications: disulfide 2-7 (inferred)
# B10: PD083 (peptide)
# peptide: RCNTATCATQRLADFLRHSSNNK([AEEA-AEEA-γGlu-C20 diacid])GPILPPTNVGSNT[Hyp]-NH2
# modifications: disulfide 2-7 (inferred)
# B11: PD081 (peptide)
# peptide: RCNTATCATQRLADFLRHSSNNLK([AEEA-AEEA-γGlu-C20 diacid])PILPPTNVGSNT[Hyp]-NH2
# modifications: disulfide 2-7 (inferred)
# B12: PD058 (peptide)
# peptide: RCNTATCATQRLADFLRHSSNNLK([γGlu-C20 diacid])PILPPTNVGSNT[Pip′]-NH2
# modifications: disulfide 2-7 (inferred)
# B13: PD090 (peptide)
# peptide: RCNTATCATQRLADFLRHSSK([γGlu-C20 diacid])NLGPILPPTNVGSNT[Hyp]-NH2
# modifications: disulfide 2-7 (inferred)
# B14: PD075 (peptide)
# peptide: [Orn]CNTATCATQRLADFLRHSSNNLK([γGlu-C20 diacid])PILPPTNVGSNT[Hyp]-NH2
# modifications: disulfide 2-7 (inferred)
# B15: PD067 (peptide)
# peptide: {C20 diacid-γGlu}-KCNTATCATQRLADFLRHSSNNFGPILPPTNVGSNT[Hyp]-NH2
# modifications: disulfide 2-7 (inferred)
# B16: PD064 (peptide)
# peptide: RCNTATCATQRLADFLRHSSNNLK([γGlu-C20 diacid])PILPPTNVGSNT[αMeP]-NH2
# modifications: disulfide 2-7 (inferred)
# B17: PD060 (peptide)
# peptide: RCNTATCATQRLADFLRHSSNNLK([γGlu-C20 diacid])PILPPTNVGSNT[Aze]-NH2
# modifications: disulfide 2-7 (inferred)
# B18: PD063 (peptide)
# peptide: RCNTATCATQRLAEFLRHSSNNLK([γGlu-C20 diacid])PILPPTNVGSNT[αMeP]-NH2
# modifications: disulfide 2-7 (inferred)
# B19: PD087 (peptide)
# peptide: RCNTATCATQRLADFLRHSSNK([AEEA-AEEA-γGlu-C20 diacid])LGPILPPTNVGSNT[Hyp]-NH2
# modifications: disulfide 2-7 (inferred)
# B20: PD078 (peptide)
# peptide: HCNTATCATQRLADFLRHSSNNLK([γGlu-C20 diacid])PILPPTNVGSNT[Hyp]-NH2
# modifications: disulfide 2-7 (inferred)
# B21: PD073 (peptide)
# peptide: [Dap]CNTATCATQRLADFLRHSSNNLK([γGlu-C20 diacid])PILPPTNVGSNT[Hyp]-NH2
# modifications: disulfide 2-7 (inferred)
# B22: PD059 (peptide)
# peptide: RCNTATCATQRLAEFLRHSSNNLK([γGlu-C20 diacid])PILPPTNVGSNT[Aze]-NH2
# modifications: disulfide 2-7 (inferred)
# B23: PD085 (peptide)
# peptide: RCNTATCATQRLADFLRHSSNNK([AEEA-AEEA-γGlu-C18 diacid])GPILPPTNVGSNT[Hyp]-NH2
# modifications: disulfide 2-7 (inferred)
# B24: PD076 (peptide)
# peptide: KCNTATCATQRLADFLRHSSNNLK([γGlu-C20 diacid])PILPPTNVGSNT[Hyp]-NH2
# modifications: disulfide 2-7 (inferred)
# B25: PD070 (peptide)
# peptide: K([γGlu-C20 diacid])CNTATCATQRLADFLRHSSNNLGPILPPTNVGSNT[Hyp]-NH2
# modifications: disulfide 2-7 (inferred)
# B26: PD084 (peptide)
# peptide: RCNTATCATQRLADFLRHSSNNK([γGlu-C18 diacid])GPILPPTNVGSNT[Hyp]-NH2
# modifications: disulfide 2-7 (inferred)
# B27: PD069 (peptide)
# peptide: {C20 diacid-γGlu}-KCNTATCATQRLADFLRHSSNNLGPILPPTNVGSNT[Hyp]-NH2
# modifications: disulfide 2-7 (inferred)
# B28: PD089 (peptide)
# peptide: RCNTATCATQRLADFLRHSSNK([AEEA-AEEA-γGlu-C18 diacid])LGPILPPTNVGSNT[Hyp]-NH2
# modifications: disulfide 2-7 (inferred)
# B29: PD004 (peptide)
# peptide: RCNTATCATQRLAEFLRHSSNNLK([AEEA-AEEA-γGlu-C20 diacid])PILPPTNVGSNTP-NH2
# modifications: disulfide 2-7 (inferred)
# B30: PD077 (peptide)
# peptide: [hArg]CNTATCATQRLADFLRHSSNNLK([γGlu-C20 diacid])PILPPTNVGSNT[Hyp]-NH2
# modifications: disulfide 2-7 (inferred)
# B31: PD088 (peptide)
# peptide: RCNTATCATQRLADFLRHSSNK([γGlu-C18 diacid])LGPILPPTNVGSNT[Hyp]-NH2
# modifications: disulfide 2-7 (inferred)
# B32: PD074 (peptide)
# peptide: [Dab]CNTATCATQRLADFLRHSSNNLK([γGlu-C20 diacid])PILPPTNVGSNT[Hyp]-NH2
# modifications: disulfide 2-7 (inferred)
# B33: PD082 (peptide)
# peptide: RCNTATCATQRLADFLRHSSNNK([γGlu-C20 diacid])GPILPPTNVGSNT[Hyp]-NH2
# modifications: disulfide 2-7 (inferred)
# B34: PD071 (peptide)
# peptide: {C20 diacid-γGlu}-KCNTATCATQRLADFLRHSSNNLKPILPPTNVGSNT[Hyp]-NH2
# modifications: disulfide 2-7 (inferred)
# B35: PD007 (peptide)
# peptide: RCNTATCATQRLAEFLRHSSNK([γGlu-C20 diacid])LGPILPPTNVGSNTP-NH2
# modifications: disulfide 2-7 (inferred)
# B36: PD080 (peptide)
# peptide: ECNTATCATQRLADFLRHSSNNLK([γGlu-C20 diacid])PILPPTNVGSNT[Hyp]-NH2
# modifications: disulfide 2-7 (inferred)
# Molecular target: T1, human amylin receptor (AMY3) on …
# Assay: cell-based or functional assay
row,"EC50, CRE-luciferase assay [nM]",Binder
1,0.032,B1
2,0.815,B2
3,0.131,B3
4,0.044,B4
5,0.14,B5
6,0.374,B6
7,0.027,B7
8,0.129,B8
9,0.033,B9
10,0.037,B10
11,0.031,B11
12,0.319,B12
13,0.031,B13
14,0.048,B14
15,0.034,B15
16,0.055,B16
17,0.246,B17
18,0.101,B18

row,"EC50, CRE-luciferase assay [nM]",Binder
1,0.032,B19
2,0.035,B20
3,0.063,B21
4,0.939,B22
5,0.005,B23
6,0.04,B24
7,0.038,B25
8,0.008,B26
9,0.039,B27
10,0.018,B28
11,0.102,B29
12,0.034,B30
13,0.013,B31
14,0.066,B32
15,0.038,B33
16,0.028,B34
17,0.205,B35
18,0.11,B36
